The source of these data is PMC2169338 (The Journal of Cell Biology, 1999).

The data set “SDS-PAGE” concerns the molecule itself. The data set can be described thus: SDS-PAGE.
Data set [1] concerns the molecule itself. Nature of the data set: 35S-sulfate labelling, SDS-PAGE and phosphorimaging of the purified complex.

B1: Tom70 (receptor, UniProt P23231 1-624, looked up)
chain: MAPTIPPPSVPIPAATPVTVPADSSIWDRVSNWVSEHKAVVYTIAGVSVVITTAGVVYYLRKGSEQKESGPKLSKKERRKRKQAEKGEAEKASTSKTEEAAPTQPKAAAVESADELPEIDEESVVRLSEDERKAYAAKLKELGNKAYGSKDFNKAIDLYSKAIICKPDPVYYSNRAACHNALAQWEQVVADTTAALKLDPHYVKALNRRANAYDQLSRYSDALLDFTASCIIDGFRNEQSAQAVERLLKKFAENKAKEILETKPPKLPSSTFVGNYLQSFRSKPRPEGLEDSVELSEETGLGQLQLGLKHLESKTGTGYEEGSAAFKKALDLGELGPHEALAYNLRGTFHCLMGKHEEALADLSKSIELDPAMTQSYIKRASMNLELGHPDKAEEDFNKAIEQNAEDPDIYYHRAQLHFIKGEFAEAAKDYQKSIDLDSDFIFSHIQLGVTQYKMGSIASSMATFRRCMKNFDQTPDVYNYYGELLLDQNKFQEAIEKFDTAIALEKETKPMCMNVLPLINKALALFQWKQDYAEAEQLCEKALIIDPECDIAVATMAQLLLQQGKVVEALKFFERAAELARTEGELVNALSYAEATRTQIQVQENYPELASKLQGMSGGPGMR
On to B1, for which the “stoichiometry N” value in “SDS-PAGE” amounted to 2.

B2: Tom40 (natural protein)
chain: not shown
On to B2, for which the “stoichiometry N” value in data set [1] is ~8 copies of Tom40 in the core complex.
